Reference: publication PMC10707033
Where two headings read alike, the source gives them in different places.

B1: synthetic SLURP-1 (natural protein)
chain: LKCYTCKEPMTSASCRTITRCKPEDTACMTTLVTVEAEYPFNQSPVVTRSCSSSCVATDPDSIGAAHLIFCCFRDLCNSEL
B2: recombinant SLURP-1 with one additional N-terminal Met residue (natural protein)
chain: MLKCYTCKEPMTSASCRTITRCKPEDTACMTTLVTVEAEYPFNQSPVVTRSCSSSCVATDPDSIGAAHLIFCCFRDLCNSEL

Assays:
[1] = target: muscle-type nicotinic acetylcholine receptor from the electric organ of Torpedo californica (Torpedo californica (endogenous in electric organ)) (UniProt P02710); assay: radioligand binding
UniProt P02710, sequence (P02710 25-461 limits assumed, chain 1 of 4): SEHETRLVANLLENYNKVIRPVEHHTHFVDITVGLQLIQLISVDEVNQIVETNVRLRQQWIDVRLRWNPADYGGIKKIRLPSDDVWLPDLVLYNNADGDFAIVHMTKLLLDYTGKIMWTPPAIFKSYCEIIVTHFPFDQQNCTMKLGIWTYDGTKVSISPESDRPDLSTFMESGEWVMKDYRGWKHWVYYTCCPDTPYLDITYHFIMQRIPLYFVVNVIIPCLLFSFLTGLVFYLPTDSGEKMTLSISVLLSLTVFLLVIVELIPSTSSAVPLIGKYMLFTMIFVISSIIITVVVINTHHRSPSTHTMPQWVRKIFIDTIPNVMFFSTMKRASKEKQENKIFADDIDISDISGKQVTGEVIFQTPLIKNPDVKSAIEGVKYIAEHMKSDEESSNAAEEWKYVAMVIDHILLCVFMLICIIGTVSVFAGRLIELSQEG
UniProt P02710, sequence (P02712 25-493 limits assumed, chain 2 of 4, further chain): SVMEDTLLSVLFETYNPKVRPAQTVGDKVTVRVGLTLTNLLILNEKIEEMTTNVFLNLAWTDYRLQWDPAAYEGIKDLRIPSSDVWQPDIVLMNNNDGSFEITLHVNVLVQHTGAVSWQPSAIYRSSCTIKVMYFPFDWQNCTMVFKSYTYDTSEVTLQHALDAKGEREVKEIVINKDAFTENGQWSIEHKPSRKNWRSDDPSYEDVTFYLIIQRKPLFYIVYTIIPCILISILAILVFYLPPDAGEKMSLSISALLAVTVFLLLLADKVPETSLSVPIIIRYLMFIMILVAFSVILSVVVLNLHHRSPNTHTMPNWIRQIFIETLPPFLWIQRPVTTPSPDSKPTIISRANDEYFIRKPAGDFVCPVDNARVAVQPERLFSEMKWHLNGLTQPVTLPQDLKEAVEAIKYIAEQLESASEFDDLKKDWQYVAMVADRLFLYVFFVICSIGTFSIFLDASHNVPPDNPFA
UniProt P02710, sequence (P02714 18-506 limits assumed, chain 3 of 4, further chain): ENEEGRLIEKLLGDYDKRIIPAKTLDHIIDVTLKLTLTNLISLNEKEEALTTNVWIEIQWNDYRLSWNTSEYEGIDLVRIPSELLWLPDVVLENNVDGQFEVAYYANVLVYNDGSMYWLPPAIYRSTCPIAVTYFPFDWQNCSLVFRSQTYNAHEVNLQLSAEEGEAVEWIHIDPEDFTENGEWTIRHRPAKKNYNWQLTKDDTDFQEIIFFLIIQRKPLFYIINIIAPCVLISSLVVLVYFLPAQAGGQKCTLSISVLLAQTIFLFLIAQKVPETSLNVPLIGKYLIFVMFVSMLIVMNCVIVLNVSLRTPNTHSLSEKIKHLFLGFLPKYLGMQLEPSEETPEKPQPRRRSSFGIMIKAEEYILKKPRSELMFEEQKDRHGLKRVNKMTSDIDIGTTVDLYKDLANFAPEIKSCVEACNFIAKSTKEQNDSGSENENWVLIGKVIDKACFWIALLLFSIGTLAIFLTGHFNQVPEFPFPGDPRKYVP
UniProt P02710, sequence (P02718 22-522 limits assumed, chain 4 of 4, further chain): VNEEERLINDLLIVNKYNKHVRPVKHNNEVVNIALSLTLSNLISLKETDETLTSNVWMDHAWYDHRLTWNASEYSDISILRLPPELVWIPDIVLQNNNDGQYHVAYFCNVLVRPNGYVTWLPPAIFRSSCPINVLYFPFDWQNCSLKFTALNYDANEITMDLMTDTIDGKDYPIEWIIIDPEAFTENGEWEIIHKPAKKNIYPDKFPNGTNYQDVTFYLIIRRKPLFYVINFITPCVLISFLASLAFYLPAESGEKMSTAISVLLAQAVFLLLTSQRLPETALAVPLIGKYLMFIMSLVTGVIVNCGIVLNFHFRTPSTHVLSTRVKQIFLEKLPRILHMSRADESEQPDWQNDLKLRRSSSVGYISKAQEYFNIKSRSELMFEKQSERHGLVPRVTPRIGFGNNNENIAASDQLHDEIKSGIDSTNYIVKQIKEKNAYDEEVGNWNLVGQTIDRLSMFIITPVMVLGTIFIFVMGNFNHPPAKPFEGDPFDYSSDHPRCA

[2] = target: muscle-type nicotinic acetylcholine receptor from the electric organ of Torpedo californica (Torpedo californica (endogenous in electric organ)) (UniProt P02710); assay: radioligand binding; remark: listed apart in the source

| Binder | IC50 [1] | IC50 [2] |
| --- | --- | --- |
| B1 | 4.05 µM | 3.92 µM |
| B2 | 10.7 µM | 9.55 µM |
